In US20080063646A1 (AbbVie / Abbott, published 2008):
Positions count from the first letter of the chain named. Numbers in names are those of the source. Where “and” joins values, the source holds several entries; their conditions need not be identical. Equal entries are not always repeated. Blank lines part the entries; values can stand above or below the binder they belong to.

Legend:
[1] = molecular target: T1, recombinant human IP-10 (R&D Systems) (human, UniProt P02778 22-98); test: Biacore
T1 construct: Bought recombinant protein; also called CXCL10; rhIP-10
T1 sequence: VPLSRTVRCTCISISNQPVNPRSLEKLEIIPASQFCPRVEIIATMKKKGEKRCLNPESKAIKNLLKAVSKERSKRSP

[2] = molecular target: T1, recombinant human IP-10 (R&D Systems); test: cell-based or functional assay
[3] = molecular target: T2, B lymphocyte chemokine (BLC) (UniProt O43927 23-109, limits assumed); test: ELISA with hybridoma supernatants
T2 sequence (looked up): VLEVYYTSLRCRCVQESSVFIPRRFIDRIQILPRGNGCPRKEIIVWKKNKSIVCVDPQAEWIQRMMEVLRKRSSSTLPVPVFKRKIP

B1: HuAIP12 G104A variant antibody (antibody, V domains shown)
VH: EVQLVQSGAEVKKPGATVKISCKVSGYTFTDYSMHWVRQAPGKGLKWMGWINTETGEPTYADDFKGRFTFTLDTSTSTAYMELSSLRSEDTAVYYCARNYDYDAYFDVWGQGTTVTVSS
VL: DIQMTQSPSSLSASVGDRVTITCKASQDINKYIAWYQQKPGKAPKLLIHYTSTLQPGIPSRFSGSGSGRDYTFTISSLQPEDIATYYCLQYDNLLFTFGQGTKLEIK
notes: Human gamma-1 / kappa, transiently expressed in 293-H cells
fold faster off-rate (kd) than unmodified HuAIP12 [1]: ~2 fold | fold higher Kd than unmodified HuAIP12 [1]: > 20 fold | fold slower on-rate (ka) than unmodified HuAIP12 [1]: ~10 fold | fold weaker monovalent interaction than unmodified HuAIP12 [1]: 20 fold

B4: murine monoclonal antibody AIP12 (antibody, V domains shown)
VH: QIQLVQSGPELKKPGETVKISCKASGYTFTDYSMHWVKQAPGKGLKWMGWINTETGEPTYADDFKGRFAFSLETSASTAYLQINNLKNEDTATYFCARNYDYDGYFDVWGAGTTVTVSS
VL: DIQMTQSPSSLSASLGGKVTITCKASQDINKYIAWYQHKPGKGPRLLIHYTSTLQPGIPSRFSGSGSGRDYSFSISNLEPEDIATYYCLQYDNLLFTFGSGTKLEIK
notes: Mouse hybridoma antibody; Mouse IgG1/kappa is used as its isotype control; also called MuAIP12; MUAIP12
IC50 of inhibition of chemotaxis, donor 215 [2]: 0.13 µg/mL | IC50 of inhibition of chemotaxis, donor 318 [2]: 0.041 µg/mL | IC50 of inhibition of chemotaxis, donor 1012 [2]: 0.091 µg/mL | IC50 of inhibition of chemotaxis, donor 1022 [2]: 0.135 µg/mL and 0.051 µg/mL and 0.086 µg/mL | binding result [3]: no binding

Continued, values first:

IC50 of inhibition of chemotaxis, donor 215 [2]: 0.139 µg/mL | IC50 of inhibition of chemotaxis, donor 318 [2]: 0.045 µg/mL | IC50 of inhibition of chemotaxis, donor 1012 [2]: 0.077 µg/mL
B2: humanized monoclonal antibody HuAIP13 (antibody, IgG1, V domains shown)
VH: B1 VH with T55I
VL: B1 VL with S26D, I48L, Y50H, N93S

IC50 of inhibition of chemotaxis, donor 215 [2]: 0.142 µg/mL | IC50 of inhibition of chemotaxis, donor 318 [2]: 0.038 µg/mL | IC50 of inhibition of chemotaxis, donor 1012 [2]: 0.073 µg/mL
B3: humanized monoclonal antibody HuAIP12 (antibody, IgG1, V domains shown)
VH: B1 VH with A104G
VL: B1 VL

IC50 of inhibition of chemotaxis, donor 215 [2]: 0.26 µg/mL | IC50 of inhibition of chemotaxis, donor 318 [2]: 0.139 µg/mL | IC50 of inhibition of chemotaxis, donor 1012 [2]: 0.084 µg/mL | IC50 of inhibition of chemotaxis, donor 1022 [2]: 0.229 µg/mL and 0.154 µg/mL and 0.078 µg/mL | binding result [3]: no binding
B5: murine monoclonal antibody AIP13 (antibody, V domains shown)
VH: B4 VH with T55I, G104A
VL: B4 VL with S26D, K42R, I48L, Y50H, E81A, N93S
notes: Mouse hybridoma antibody; Mouse IgG1/kappa is used as its isotype control; also called MuAIP13
